From the supplement of paper PMC10724198
± gives the standard deviation of the averaged measurements.

Tested on: Saccharomyces cerevisiae
Assay: protein stability index of tFT-peptide fusion (C-terminal peptide) (PSI (0-1 scale)); higher = more stable (slower turnover)
Settings: genetic background: wild type; temperature: 30 C
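Also: PSI is a weighted mean of sequencing reads over stability bins, variants kept only with over 10 reads, mCherry proximal and sfGFP distal, peptide attached via GGGS linker.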

PPLLPSPPRPPL gave a protein stability index of 0.774 ± 0.078.

In the case of SPSLSFVFPVSL, the protein stability index is reported as 0.756 ± 0.039.

Sequence RTPRGCSLAYRA has a protein stability index of 0.72 ± 0.11.

MEGRVARAYSDE showed a protein stability index of 0.688 ± 0.04.

VVRLGGVSWAGG showed a protein stability index of 0.649 ± 0.016.

KILNIKCLLANK showed a protein stability index of 0.686 ± 0.017.

In the case of GGSRRANRQMRK, the protein stability index is reported as 0.7148 ± 0.0045.

RQLPMHLTSPGT showed a protein stability index of 0.66 ± 0.021.

FQAYPPFSLVPA showed a protein stability index of 0.5533 ± 0.0029.

Work on KESEKRKRENKN yielded a protein stability index of 0.698 ± 0.025.

Sequence SPVRLSSVPRPY has a protein stability index of 0.683 ± 0.019.

LNSSRLSFFCLE showed a protein stability index of 0.689 ± 0.079.

Sequence SLKELSYKGTLR has a protein stability index of 0.65 ± 0.038.

In the case of LLFFSCGGVSSV, the protein stability index is reported as 0.657 ± 0.053.

SPTPPPPPPRPP showed a protein stability index of 0.581 ± 0.018.

For VFMWRIRRRLVR, the protein stability index was 0.598 ± 0.02.

For AVAERGRPPLKE, the protein stability index was 0.6893 ± 0.0059.

Sequence RSPPPRAPPPSV has a protein stability index of 0.645 ± 0.06.

WSGQWCRGRAGG gave a protein stability index of 0.706 ± 0.018.

LPCPSFPSLPFL gave a protein stability index of 0.646 ± 0.1.

PPPRTLARSRLP showed a protein stability index of 0.74 ± 0.016.

With VPRSSGAILGFL the protein stability index was 0.637 ± 0.015.

RRMCARRSAAIV gave a protein stability index of 0.665 ± 0.046.

With VVCFGNFGGVRV the protein stability index was 0.778 ± 0.049.

SASSFGTLYCYS gave a protein stability index of 0.6966 ± 0.0019.

For VEDGGSREAGEA, the protein stability index was 0.627 ± 0.0073.

With GSPPSPPLPPPP the protein stability index was 0.674 ± 0.023.

Sequence TSTRTPTHRGPL has a protein stability index of 0.762 ± 0.014.

KKKKKQKEKKQK gave a protein stability index of 0.72 ± 0.0083.

For GSWAVQEHMLLE, the protein stability index was 0.728 ± 0.065.

For LVSLPISFPASL, the protein stability index was 0.692 ± 0.035.

Sequence GLVDARRRWCFS has a protein stability index of 0.62 ± 0.0073.

RFPVLRFPASFL was tested, and the protein stability index was 0.669 ± 0.048.

In the case of RPFLVGRISFSS, the protein stability index is reported as 0.693 ± 0.046.

In the case of DACWWVDDGGVV, the protein stability index is reported as 0.719 ± 0.051.

With RTRRPSRTRSAS the protein stability index was 0.772 ± 0.072.

FSVHVPPFPPVP showed a protein stability index of 0.654 ± 0.038.

In the case of LKNVKFTNNRKK, the protein stability index is reported as 0.694 ± 0.014.

Work on QHTHNRLRAAQD yielded a protein stability index of 0.678 ± 0.029.

SSSVLPESFSPS was tested, and the protein stability index was 0.687 ± 0.036.

For PPPAPPLLPPLP, the protein stability index was 0.718 ± 0.033.

GVLACVEYSRMS gave a protein stability index of 0.683 ± 0.0084.

RRAPASAFPHSP was tested, and the protein stability index was 0.688 ± 0.06.

PPPTPSSLLSTP gave a protein stability index of 0.701 ± 0.057.

In the case of VGLLQRSLAFVL, the protein stability index is reported as 0.612 ± 0.031.

With LCWQALSLGVMC the protein stability index was 0.526 ± 0.023.

VRERVRRWVGDG was tested, and the protein stability index was 0.5752 ± 0.0053.

RRGAVWDLVGDG was tested, and the protein stability index was 0.571 ± 0.029.

AEKKEERQRTSN showed a protein stability index of 0.681 ± 0.032.

Sequence GVCRVAVGGGAT has a protein stability index of 0.713 ± 0.033.

PSPAPHIPIFFR gave a protein stability index of 0.742 ± 0.079.

With PGRSRGGPPERR the protein stability index was 0.6386 ± 0.0035.

Sequence KRKEEKKPLINE has a protein stability index of 0.734 ± 0.072.

For PPPPLPPSPCSL, the protein stability index was 0.567 ± 0.019.

In the case of SPAGGPRGGEGV, the protein stability index is reported as 0.678 ± 0.075.

CFLPLFFFRFVE gave a protein stability index of 0.609 ± 0.027.

CLGGPAAWPLFS showed a protein stability index of 0.6778 ± 0.0025.

In the case of EKCHVTVVNEMR, the protein stability index is reported as 0.643 ± 0.074.

In the case of RGRRRAADRSLR, the protein stability index is reported as 0.749 ± 0.14.

Work on PFIPRFFSPCPL yielded a protein stability index of 0.673 ± 0.018.

With LRRSRQGGSGRR the protein stability index was 0.6 ± 0.044.

Work on VREILKDGIFDP yielded a protein stability index of 0.717 ± 0.043.

Sequence LLALAPFWVRHK has a protein stability index of 0.68 ± 0.011.

LYGILSCNSGCG showed a protein stability index of 0.672 ± 0.035.

PPPPPPPPSALP was tested, and the protein stability index was 0.719 ± 0.043.

Work on PSELGAGNVMGG yielded a protein stability index of 0.699 ± 0.027.

Sequence CRRCRIHSGIYD has a protein stability index of 0.672 ± 0.034.

Sequence PLSLIAFAISPC has a protein stability index of 0.637 ± 0.015.

AGGRGVPSMGNG gave a protein stability index of 0.644 ± 0.033.

AYCRRPALPWRG showed a protein stability index of 0.714 ± 0.028.

AQAPVDPTPVPL showed a protein stability index of 0.658 ± 0.11.

Sequence PLAHYRPLPPRL has a protein stability index of 0.787 ± 0.063.

Sequence TAVIRASRFEEI has a protein stability index of 0.672 ± 0.0055.

Sequence IRAGRGPARVVP has a protein stability index of 0.707 ± 0.058.

With PAPAVPPQTTPM the protein stability index was 0.6693 ± 0.001.

With FMYRDVPFLRAP the protein stability index was 0.697 ± 0.03.

With GAKSENSLTTVQ the protein stability index was 0.673 ± 0.013.

Work on SVLPELHAVPLF yielded a protein stability index of 0.679 ± 0.008.

Work on RLSIEVREWGDG yielded a protein stability index of 0.642 ± 0.075.

Sequence VPACFSYFLASC has a protein stability index of 0.68 ± 0.04.

Sequence HLLRSDPAWFSG has a protein stability index of 0.705 ± 0.009.

HAQTNSNSQLLL gave a protein stability index of 0.677 ± 0.0076.

KVGWGMRGVRGG gave a protein stability index of 0.66 ± 0.015.

Work on VGGRRCVCVWWL yielded a protein stability index of 0.674 ± 0.016.

PSSPPCPPPLPS gave a protein stability index of 0.624 ± 0.02.

In the case of GGVLDGVGVRMG, the protein stability index is reported as 0.69 ± 0.054.

Sequence EGEVAGRWCGRG has a protein stability index of 0.69 ± 0.013.

For YLSPPLLPSFPL, the protein stability index was 0.728 ± 0.021.

With FPGSLVPVASVP the protein stability index was 0.71 ± 0.089.

FADTALLCELLR gave a protein stability index of 0.687 ± 0.033.

With LPRPPPPPALPT the protein stability index was 0.66 ± 0.087.

With HPSRPPRASPPS the protein stability index was 0.693 ± 0.03.

AGPATSSSPPVS gave a protein stability index of 0.688 ± 0.032.

Sequence QIRRPRRFFYVS has a protein stability index of 0.642 ± 0.17.

SERVCHESCLVG gave a protein stability index of 0.68 ± 0.047.

Work on CAWLCVRFAGVG yielded a protein stability index of 0.668 ± 0.062.

Sequence WSVVRVGGCGAR has a protein stability index of 0.699 ± 0.024.

DGTLTAKVIETF was tested, and the protein stability index was 0.66 ± 0.058.

Sequence GAGVLTLDNRRV has a protein stability index of 0.674 ± 0.019.

In the case of RRSHGLAGPKKG, the protein stability index is reported as 0.674 ± 0.05.

RLVFSSCLNALF gave a protein stability index of 0.724 ± 0.073.
